Test results from the supplement of paper PMC9112550, “Optimization of the antimicrobial peptide Bac7 by deep mutational scanning” (BMC Biology, 2022).

Tested on: Escherichia coli TOP10
Assay: shrunken log2 fold change of peptide-encoding DNA abundance (4.5 h post-induction vs induction); higher = less antimicrobial activity (less host growth inhibition)
Details: time post-induction: 4.5 h; library: site-saturation at positions 5, 18, 19, 20
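Also: peptides expressed intracellularly from a pBAD plasmid library in pooled LB shake-flask culture, induced with 0.3% L-arabinose, DNA abundance read by NGS, three biological replicates, DESeq2 with apeglm shrinkage.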

Sequence | shrunken log2 fold change
RRIRLRPPRLPRPRPRPEGQPRP | -0.118
RRIRLRPPRLPRPRPRPEHIPRP | 0.0843
RRIRLRPPRLPRPRPRPEHRPRP | 0.283
RRIRLRPPRLPRPRPRPEILPRP | 0.0325
RRIRLRPPRLPRPRPRPELDPRP | 0.273
RRIRLRPPRLPRPRPRPELKPRP | 0.0568
RRIRLRPPRLPRPRPRPELTPRP | 0.067
RRIRLRPPRLPRPRPRPENCPRP | -0.0062
RRIRLRPPRLPRPRPRPENIPRP | -0.519
RRIRLRPPRLPRPRPRPENSPRP | 0.000683
RRIRLRPPRLPRPRPRPERHPRP | 0.27
RRIRLRPPRLPRPRPRPERLPRP | 0.466
RRIRLRPPRLPRPRPRPERNPRP | 0.129
RRIRLRPPRLPRPRPRPERTPRP | 0.098
RRIRLRPPRLPRPRPRPEVGPRP | -0.0231
RRIRLRPPRLPRPRPRPEVWPRP | 0.276
RRIRLRPPRLPRPRPRPEYYPRP | -0.0599
RRIRLRPPRLPRPRPRPFCFPRP | -0.213
RRIRLRPPRLPRPRPRPFDQPRP | 0.0721
RRIRLRPPRLPRPRPRPFFGPRP | 0.246

Sequence | shrunken log2 fold change
RRIRLRPPRLPRPRPRPFFNPRP | -0.359
RRIRLRPPRLPRPRPRPFGCPRP | -0.138
RRIRLRPPRLPRPRPRPFGFPRP | -0.15
RRIRLRPPRLPRPRPRPFGKPRP | -0.168
RRIRLRPPRLPRPRPRPFHFPRP | -0.58
RRIRLRPPRLPRPRPRPFHHPRP | -0.147
RRIRLRPPRLPRPRPRPFHSPRP | -0.177
RRIRLRPPRLPRPRPRPFHWPRP | -0.000687
RRIRLRPPRLPRPRPRPFIKPRP | -0.66
RRIRLRPPRLPRPRPRPFKVPRP | 0.0321
RRIRLRPPRLPRPRPRPFKWPRP | 0.00989
RRIRLRPPRLPRPRPRPFMAPRP | -0.343
RRIRLRPPRLPRPRPRPFMEPRP | -0.35
RRIRLRPPRLPRPRPRPFNAPRP | -0.154
RRIRLRPPRLPRPRPRPFNFPRP | -0.855
RRIRLRPPRLPRPRPRPFPGPRP | 0.143
RRIRLRPPRLPRPRPRPFPRPRP | -0.163
RRIRLRPPRLPRPRPRPFQLPRP | -0.402
RRIRLRPPRLPRPRPRPFQTPRP | -0.0347
RRIRLRPPRLPRPRPRPFQYPRP | -0.182

Sequence | shrunken log2 fold change
RRIRLRPPRLPRPRPRPFRTPRP | -0.0778
RRIRLRPPRLPRPRPRPFSKPRP | -0.456
RRIRLRPPRLPRPRPRPFSRPRP | -0.199
RRIRLRPPRLPRPRPRPFVWPRP | 0.118
RRIRLRPPRLPRPRPRPFYIPRP | -0.865
RRIRLRPPRLPRPRPRPFYLPRP | -0.572
RRIRLRPPRLPRPRPRPGARPRP | 0.369
RRIRLRPPRLPRPRPRPGCEPRP | 0.409
RRIRLRPPRLPRPRPRPGDIPRP | -0.385
RRIRLRPPRLPRPRPRPGEGPRP | -0.036
RRIRLRPPRLPRPRPRPGETPRP | -0.0544
RRIRLRPPRLPRPRPRPGFIPRP | 0.452
RRIRLRPPRLPRPRPRPGGFPRP | 0.176
RRIRLRPPRLPRPRPRPGHIPRP | -0.197
RRIRLRPPRLPRPRPRPGHWPRP | 0.279
RRIRLRPPRLPRPRPRPGIQPRP | -0.0773
RRIRLRPPRLPRPRPRPGISPRP | -0.00752
RRIRLRPPRLPRPRPRPGKAPRP | 0.0651
RRIRLRPPRLPRPRPRPGLSPRP | 0.00141
RRIRLRPPRLPRPRPRPGNAPRP | 0.0676
